What was measured:
[1] = target: T1, cynomolgus monkey pIgR extracellular domain (cynomolgus monkey, UniProt A0A2K5WMU9 19-638); assay: SPR, VHH captured by anti-Fc, ECD analyte
T1 construct: extracellular domain
Method: (§1) In an assay, two flow cells of the SPR were used, in which the flow cell 1 ran the buffer reference, and the flow cell 2 ran the analyte. […] The HBSP (GE) buffer was followed at a flow rate of 30 μL/min. Then, the VHHs were captured on the anti-human Fc protein surface at 0.5 ug/ml (˜200-300 RU) on the flow cell 2. The running buffer was changed to HBSP with 100 ug/ml BSA after the capture. Next, the pIgR extracellular domains were used as analyte and loaded in a series of concentrations, starting at 30 nM with further 3-fold dilution series.
(§2) The extracellular domains were prepared as follows: cynomolgus monkey and rat extracellular domains were produced and characterized in house; mouse and human pIgR extracellular domains were purchased from R&D Systems (Cat #2800-PG-050 & 2717-PG-050 respectively). The pIgR extracellular domains were injected from low to high concentration using a single-cycle kinetics method. The off-rate was monitored at 30 minutes after the last or highest concentration injection. The reference run was completed under the same conditions except that the pIgR injection was replaced by buffer injection.
(§3) The raw data were processed by subtracting two sets of reference data from the response data: (1) reference flow cell 1 subtracted from sample flow cell 2; and (2) buffer blank run subtracted from experimental run. The processed data at all concentrations for each VHH were globally fit to a 1:1 simple Langmuir binding model to extract estimates of the kinetic constants (kₒₙ, koff) and affinity constants (KD).

[2] = target: T2, human pIgR extracellular domain (ECD) (human, UniProt P01833 19-638); assay: SPR, VHH captured by anti-Fc, ECD analyte
T2 construct: Bought from R&D Systems (Cat 2717-PG-050); also called hpIgR ECD
T2 sequence (P01833 other isoform, or with tags, fused parts or gaps): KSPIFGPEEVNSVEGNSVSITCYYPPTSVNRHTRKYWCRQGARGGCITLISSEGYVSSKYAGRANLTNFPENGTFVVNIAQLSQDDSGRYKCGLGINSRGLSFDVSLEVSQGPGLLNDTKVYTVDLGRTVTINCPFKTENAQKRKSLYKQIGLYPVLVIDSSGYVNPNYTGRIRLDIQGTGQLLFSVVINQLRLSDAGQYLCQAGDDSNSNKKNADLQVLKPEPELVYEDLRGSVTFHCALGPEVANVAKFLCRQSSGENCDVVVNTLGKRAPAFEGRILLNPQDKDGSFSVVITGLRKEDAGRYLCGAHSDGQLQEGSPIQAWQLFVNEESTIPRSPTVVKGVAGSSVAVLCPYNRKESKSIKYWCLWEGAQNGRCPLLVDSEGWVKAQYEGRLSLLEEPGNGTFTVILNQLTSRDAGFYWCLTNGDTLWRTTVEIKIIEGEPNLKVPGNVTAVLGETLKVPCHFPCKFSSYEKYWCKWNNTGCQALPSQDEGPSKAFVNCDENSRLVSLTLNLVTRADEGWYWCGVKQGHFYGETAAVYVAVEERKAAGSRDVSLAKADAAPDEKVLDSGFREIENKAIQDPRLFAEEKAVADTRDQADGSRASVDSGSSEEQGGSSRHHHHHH
Method: as §1, §2, §3

T1 sequence (A0A2K5WMU9 entry or part of it): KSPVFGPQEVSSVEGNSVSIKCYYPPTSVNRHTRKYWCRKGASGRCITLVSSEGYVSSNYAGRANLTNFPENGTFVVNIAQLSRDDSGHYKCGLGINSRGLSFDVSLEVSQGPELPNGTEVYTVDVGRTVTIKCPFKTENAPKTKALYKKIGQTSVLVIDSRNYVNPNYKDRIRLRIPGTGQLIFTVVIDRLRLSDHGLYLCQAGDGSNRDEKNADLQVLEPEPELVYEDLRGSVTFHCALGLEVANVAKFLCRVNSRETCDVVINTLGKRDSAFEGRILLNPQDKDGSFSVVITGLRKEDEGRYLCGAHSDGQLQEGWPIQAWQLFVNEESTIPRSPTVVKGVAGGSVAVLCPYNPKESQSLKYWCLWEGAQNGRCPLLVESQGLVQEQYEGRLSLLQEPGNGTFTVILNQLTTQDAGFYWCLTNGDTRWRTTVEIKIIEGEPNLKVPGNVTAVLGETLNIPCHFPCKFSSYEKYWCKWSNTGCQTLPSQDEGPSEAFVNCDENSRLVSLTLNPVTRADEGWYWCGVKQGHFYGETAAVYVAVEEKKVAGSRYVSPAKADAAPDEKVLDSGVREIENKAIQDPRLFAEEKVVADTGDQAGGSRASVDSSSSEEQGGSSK

B1: 01C02R3 VHH Mono-Fc (Fc fusion)
chain: QVQLVESGGGLVQAGGSLRLSCAASGLSFSSYTMGWFRQVPGKERELISAIHWSGGPTFYSNSVKGRFTISRDNAKDTVYLQMNSLKPEDTAVYYCTAEPVGSMISPDWTYWGQGTLVTVSSSPAPELLGGPSVFLFPPKPKDTLMISRTPEVTCVVVDVSHEDPEVKFNWYVDGVEVHNAKTKPREEQYNSTYRVVSVLTVLHQDWLNGKEYKCKVSNKALPAPIEKTISKAKGQPREPQVYTKPPSREEMTKNQVSLSCLVKGFYPSDIAVEWESNGQPENNYKTTVPVLDSDGSFRLASYLTVDKSRWQQGNVFSCSVMHEALHNHYTQKSLSLSPGK
- Kd [1]: 8.43 nM
- Kd [2]: 1.23 nM

B2: 03D01R3 VHH Mono-Fc (Fc fusion)
chain: EVQLVESGGGLVQPGGSLRLSCAASGFTFRTYYMGWFRQAPGKEREFVGVTRSSDDVTYYADSVKGRFTISRDNAKNTVYLQMSRLKPEDTAVYYCAAKPVPITRYSFPQIGEEYDYWGQGTLVTVSSSPAPELLGGPSVFLFPPKPKDTLMISRTPEVTCVVVDVSHEDPEVKFNWYVDGVEVHNAKTKPREEQYNSTYRVVSVLTVLHQDWLNGKEYKCKVSNKALPAPIEKTISKAKGQPREPQVYTKPPSREEMTKNQVSLSCLVKGFYPSDIAVEWESNGQPENNYKTTVPVLDSDGSFRLASYLTVDKSRWQQGNVFSCSVMHEALHNHYTQKSLSLSPGK
- Kd [1]: 5.51 nM
- Kd [2]: 2.26 nM

B3: 02B09R3 VHH Mono-Fc (Fc fusion)
chain: EVQLVESGGGLVQPGGSLRLSCAASGFTFRTYYMGWFRRAPGKEREFVGVTRSSDDVTYYADSVKGRFTISRDNAKDTVYLQMSRLKPEDTAVYYCAAKPVPITRYSFPQIGEEYDYWGQGTLVTVSSSPAPELLGGPSVFLFPPKPKDTLMISRTPEVTCVVVDVSHEDPEVKFNWYVDGVEVHNAKTKPREEQYNSTYRVVSVLTVLHQDWLNGKEYKCKVSNKALPAPIEKTISKAKGQPREPQVYTKPPSREEMTKNQVSLSCLVKGFYPSDIAVEWESNGQPENNYKTTVPVLDSDGSFRLASYLTVDKSRWQQGNVFSCSVMHEALHNHYTQKSLSLSPGK
- Kd [1]: 9.51 nM
- Kd [2]: 2.46 nM

B4: 01C09R3 VHH Mono-Fc (Fc fusion)
chain: EVQLVESGGGLVQAGGSLRLSCAASGFTFRTYYMGWFRQAPGKEREFVGVTRSSDDVTYYADSVKGRFTISRDNAKNTVYLQMSRLKPEDTAVYYCAAKPVPITRYSFPQIGEEYDYWGQGTLVTVSSSPAPELLGGPSVFLFPPKPKDTLMISRTPEVTCVVVDVSHEDPEVKFNWYVDGVEVHNAKTKPREEQYNSTYRVVSVLTVLHQDWLNGKEYKCKVSNKALPAPIEKTISKAKGQPREPQVYTKPPSREEMTKNQVSLSCLVKGFYPSDIAVEWESNGQPENNYKTTVPVLDSDGSFRLASYLTVDKSRWQQGNVFSCSVMHEALHNHYTQKSLSLSPGK
- Kd [1]: 5.73 nM
- Kd [2]: 2.18 nM

B5: 01E02R3LS VHH Mono-Fc (Fc fusion)
chain: EVQLVESGGGLVETGGSLRLSCAASGRTESTYTMAWFRQAPGKERERVATISFSGSTTTYLASVQGRFTISRDGAKNTIFLQMNGLKPEDTAVYYCALDTRRRVGSSPRFYDYWGQGTLVTVSSSPAPELLGGPSVFLFPPKPKDTLMISRTPEVTCVVVDVSHEDPEVKFNWYVDGVEVHNAKTKPREEQYNSTYRVVSVLTVLHQDWLNGKEYKCKVSNKALPAPIEKTISKAKGQPREPQVYTKPPSREEMTKNQVSLSCLVKGFYPSDIAVEWESNGQPENNYKTTVPVLDSDGSFRLASYLTVDKSRWQQGNVFSCSVMHEALHNHYTQKSLSLSPGK
- Kd [1]: 0.018 nM
- Kd [2]: 0.6 nM

B6: 01D02R3LS VHH Mono-Fc (Fc fusion)
chain: QVQLVESGGGLVQAGDSLTLSCAASGRSVGFDTYGMAWFRQAPGKEREFVASIAYNGETTSYADSVQGRFTVTRENAKNTIALRMNGLKPDDTAVYYCAAAQYYLTGTSFPAKFWGQGTLVTVSSSPAPELLGGPSVFLFPPKPKDTLMISRTPEVTCVVVDVSHEDPEVKFNWYVDGVEVHNAKTKPREEQYNSTYRVVSVLTVLHQDWLNGKEYKCKVSNKALPAPIEKTISKAKGQPREPQVYTKPPSREEMTKNQVSLSCLVKGFYPSDIAVEWESNGQPENNYKTTVPVLDSDGSFRLASYLTVDKSRWQQGNVFSCSVMHEALHNHYTQKSLSLSPGK
- Kd [1]: 0.885 nM
- Kd [2]: 0.809 nM

B7: 01F03R2 VHH Mono-Fc (Fc fusion)
chain: QVQLVESGGGLVQAGGSLRLSCAASGRTFSSYAMGWFRQAPGKEREFVAVISWSGGSTYYADSVKGRFTISRDNAKNTVYLQMNSLKPEDTAVYYCASGEQPGSNRPYIPEQPIEFMPTDYPSWYDYWGQGTQVTVSSSPAPELLGGPSVFLFPPKPKDTLMISRTPEVTCVVVDVSHEDPEVKFNWYVDGVEVHNAKTKPREEQYNSTYRVVSVLTVLHQDWLNGKEYKCKVSNKALPAPIEKTISKAKGQPREPQVYTKPPSREEMTKNQVSLSCLVKGFYPSDIAVEWESNGQPENNYKTTVPVLDSDGSFRLASYLTVDKSRWQQGNVFSCSVMHEALHNHYTQKSLSLSPGK
- Kd [1]: 3.57 nM
- Kd [2]: 1.36 nM

B8: 01B01R3 VHH Mono-Fc (Fc fusion)
chain: QVQLVESGGGLVQAGGSLRLSCAASGRTFSSYAMGWFRQAPGKEREFVAVISWSGGSTYYADSVKGRFTISRDNAKNTVYLQMNSLKPEDTAVYYCASGEQPGSNRPYIPEQPIEFMPTDYPSWYDYWGQGTLVTVSSSPAPELLGGPSVFLFPPKPKDTLMISRTPEVTCVVVDVSHEDPEVKFNWYVDGVEVHNAKTKPREEQYNSTYRVVSVLTVLHQDWLNGKEYKCKVSNKALPAPIEKTISKAKGQPREPQVYTKPPSREEMTKNQVSLSCLVKGFYPSDIAVEWESNGQPENNYKTTVPVLDSDGSFRLASYLTVDKSRWQQGNVFSCSVMHEALHNHYTQKSLSLSPGK
- Kd [1]: 3.78 nM
- Kd [2]: 1.38 nM

B9: 01G07R3 VHH Mono-Fc (Fc fusion)
chain: QVQLVESGGGLVQAGDSLRLSCAASGRTLSFDTYAMGWFRQAPGKEREFVASIDWSGGTTYYADSVKGRFTVTRDNAKNTVTLRMNSLKPADTAVYYCAAAQYYRSGTSFPANYWGQGTLVTVSSSPAPELLGGPSVFLFPPKPKDTLMISRTPEVTCVVVDVSHEDPEVKFNWYVDGVEVHNAKTKPREEQYNSTYRVVSVLTVLHQDWLNGKEYKCKVSNKALPAPIEKTISKAKGQPREPQVYTKPPSREEMTKNQVSLSCLVKGFYPSDIAVEWESNGQPENNYKTTVPVLDSDGSFRLASYLTVDKSRWQQGNVFSCSVMHEALHNHYTQKSLSLSPGK
- Kd [1]: 40.8 nM
- Kd [2]: 1.18 nM

B10: 01D01R3 VHH Mono-Fc (Fc fusion)
chain: EVQLVESGGGLVQAGGSLRLSCAASGRTFSVYGMGWFRQAPGQERAFVAAISWSDGSTYYADSVKGRFTISRDNAKNTMYLQMNSLKPEDTAVYFCAADLTGWGLDADVSEYDYWGQGTQVTVSSSPAPELLGGPSVFLFPPKPKDTLMISRTPEVTCVVVDVSHEDPEVKFNWYVDGVEVHNAKTKPREEQYNSTYRVVSVLTVLHQDWLNGKEYKCKVSNKALPAPIEKTISKAKGQPREPQVYTKPPSREEMTKNQVSLSCLVKGFYPSDIAVEWESNGQPENNYKTTVPVLDSDGSFRLASYLTVDKSRWQQGNVFSCSVMHEALHNHYTQKSLSLSPGK
- Kd [1]: 375 nM
- Kd [2]: 5.96 nM

B11: 02B11R3 VHH Mono-Fc (Fc fusion)
chain: EVQLVESGGGLVQAGGSLRLSCAASGRTFSPYGMGWFRQTPGKERAFVAAVDWNDGSTYYSDSVKGRFTISRDNAKNTVYLQMNSLKSEDTAVYYCAADLTGWGLDADVSEYDYWGQGTLVTVSSSPAPELLGGPSVFLFPPKPKDTLMISRTPEVTCVVVDVSHEDPEVKFNWYVDGVEVHNAKTKPREEQYNSTYRVVSVLTVLHQDWLNGKEYKCKVSNKALPAPIEKTISKAKGQPREPQVYTKPPSREEMTKNQVSLSCLVKGFYPSDIAVEWESNGQPENNYKTTVPVLDSDGSFRLASYLTVDKSRWQQGNVFSCSVMHEALHNHYTQKSLSLSPGK
- Kd [1]: 101 nM
- Kd [2]: 0.858 nM

B12: 01G04R3 VHH Mono-Fc (Fc fusion)
chain: QVQLVESGGGLVQAGGSLRLSCAASGRTFSVYGMGWFRQAPGQERAFVAAISWSDGSTYYADSVKGRFTISRDNAKNTMYLQMNSLKPEDTAVYFCAADLTGWGLDADVSEYDYWGQGTQVTVSSSPAPELLGGPSVFLFPPKPKDTLMISRTPEVTCVVVDVSHEDPEVKFNWYVDGVEVHNAKTKPREEQYNSTYRVVSVLTVLHQDWLNGKEYKCKVSNKALPAPIEKTISKAKGQPREPQVYTKPPSREEMTKNQVSLSCLVKGFYPSDIAVEWESNGQPENNYKTTVPVLDSDGSFRLASYLTVDKSRWQQGNVFSCSVMHEALHNHYTQKSLSLSPGK
- Kd [1]: 399 nM
- Kd [2]: 6.22 nM

B13: 01E03R2 VHH Mono-Fc (Fc fusion)
chain: EVQLVESGGGLVQAGGSLRLSCAASGRTFSVYGMGWFRQAPGQERAFVAAISWSDGSTYYADSVKGRFTISRDNAKNTMYLQMNSLKPEDTAVYFCAADLTGWGLDADVSEYDYWGQGTLVTVSSSPAPELLGGPSVFLFPPKPKDTLMISRTPEVTCVVVDVSHEDPEVKFNWYVDGVEVHNAKTKPREEQYNSTYRVVSVLTVLHQDWLNGKEYKCKVSNKALPAPIEKTISKAKGQPREPQVYTKPPSREEMTKNQVSLSCLVKGFYPSDIAVEWESNGQPENNYKTTVPVLDSDGSFRLASYLTVDKSRWQQGNVFSCSVMHEALHNHYTQKSLSLSPGK
- Kd [1]: 373 nM
- Kd [2]: 6.1 nM

Source: patent US20220112276A1 (Janssen / Centocor, published 2022)
